As usually defined, the tissue uptake is the percentage of the injected dose found per gram of tissue.

The subject of data set [1] is CD13pos. HT1080 fibrosarcoma. Particulars: mouse, in vivo; cited from earlier work. On the procedure:
The tumour-targeting potential of [^213Bi]Bi-DOTAGA-cKNGRE was also evaluated in HT1080 tumour-bearing CB17 mice. […] Although the tumourous tracer activity decreased from 30 to 90 min post-administration, relatively higher accumulation of the HT1080 neoplasms compared with the other organs at 90 min time point yields better tumour-to-background (T/M) ratios and image contrast. The tumour-to-organs ratio is ...

Data set [2] can be described thus: Serum stability of [205/206Bi]Bi-DOTAGA-cKNGRE. Type of data set: in vitro ADME. Particulars: mouse plasma (heading says serum); 50 µL tracer in saline + 50 µL mouse plasma, 90 min, radio-iTLC; read-out: RCP after 90 min incubation in serum. On the procedure:
Fifty μL of [^205/206Bi]Bi-DOTAGA-Bn-cKNGRE in physiological saline (Salsol, TEVA, Debrecen, Hungary) was added to the solution of fifty μL of mouse plasma. The RCP of the samples was determined by radio-iTLC at 0, 30, 60 and 90 min time points using the same method as described above. After 90 min the [^205/206Bi]Bi-DOTAGA-Bn-cKNGRE remained intact as the RCP of the sample taken from the mixture was above 95%, which meets the requirements for ^213Bi-labelled radiopharmaceuticals.

Data set [3] can be described thus: LogP measurement of [205/206Bi]Bi-DOTAGA-cKNGRE (n-octanol/water). Type of data set: physicochemical. The conditions noted are these: shake-flask n-octanol/water, 205/206Bi as surrogates for 213Bi, 10 µL tracer in saline + 0.49 mL water + 0.5 mL n-octanol, shaken 5 min, centrifuged 6000 rpm 5 min, gamma counter. On the procedure: For the determination of LogP value we used ^205/206Bi isotopes as surrogates which were produced by GE PETtrace cyclotron using the method described by Lagunas-Solar et al.. The radiolabelling of the precursor was carried out as follows: 50 µL of 3 M NH4OAc buffer (pH 4) and 15 µL of 6 mM DOTAGA-cKNGRE aqueous solution were added to 50 µL [^205/206Bi]BiCl3 in 0.1 M HCl. The labelled complex was purified as described above. Then 10 µL of the purified [^205/206Bi]Bi-DOTAGA-cKNGRE in physiological saline (Salsol, TEVA, Debrecen, Hungary) was diluted with 0.49 mL water. It was then mixed with 0.5 mL n-octanol in a vial and shaken for 5 min. After centrifugation (6000 rpm, 5 min) the radioactivity of the sample from both the aqueous and n-octanol phase was measured with a Perkin Elmer Packard Cobra gamma counter. The LogP value was −2.59.

Another data set in a line: in vivo. Details: species or system CB17 SCID mice. Particulars: CB17 SCID, mouse, 5 MBq, total radioactivity. On the procedure: (§1) Experimental tumour induction was carried out under inhalation anaesthesia with a dedicated small animal anaesthesia device (Tec3 Isoflurane Vaporizer, Eickemeyer Veterinary Equipment, Luton, UK) applying 3% isoflurane (Forane, AbbVie, Chicago, IL, USA), 0.4 L/min O2 and 1.4 L/min N2O. This was followed by depilation and disinfection subcutaneous (s.c.) inoculation of 1.5 × 10^6 HT1080 (human fibrosarcoma) cells in 100 μL (1/3 part of Matrigel and 2/3 part of saline) into the left shoulder area of the CB17 SCID mice. For tumour verification the study mice underwent in vivo [^68Ga]Ga-DOTAGA-cKNGRE-based PET imaging 10 ± 1 days post tumour cell inoculation. To evaluate the organ distribution pattern of the ^213Bi-labelled therapeutic peptide compounds, ex vivo biodistribution studies were also executed 10 ± 1 days following the HT1080 cell transplantation at an average tumour volume of 155 ± 20 mm^3. Thereafter, tumour sizes based on the largest and the smallest tumour diameters were registered ((largest diameter × smallest diameter^2)/2). We used calliper measurements for tumour growth determination.
To assess the organ distribution of [^213Bi]Bi-DOTAGA-cKNGRE, ex vivo investigations were performed. The HT1080 fibrosarcoma-bearing experimental mice were anaesthetised with Forane (5%) and were sacrificed at 30 and 90 min post administration of the radiopharmaceutical. After autopsy, selected tissues, organs and the tumour itself were removed, weighed wet and their radioactivity was measured on a calibrated gamma counter (Perkin-Elmer Packard Cobra, Waltham, MA, USA). Then, the activity was decay corrected to the time of the injection. The percent of administered dose per gram of tissue (%ID/g) was determined for all samples from the counts per minute values (CPM). We presented the ex vivo data as mean %ID/g ± SD.

The next data set concerns HT1080 fibrosarcoma. The experiment in a line: Cancer treatment study: tumour volume. Type of data set: in vivo, CB17 SCID mice. Particulars: approximately 5 MBq i.p. on days 7, 8, 10, 12, calliper, mean ± SD. On the procedure:
as §1
Seven days after HT1080 cell inoculation the tumour-bearing animals were randomly classified into two subgroups: treatment-naïve group (control, n = 8) and [^213Bi]Bi-DOTAGA-cKNGRE-treated group (treated, n = 8). Approximately 5 MBq [^213Bi]Bi-DOTAGA-cKNGRE was intraperitoneally (i.p.) administered to the experimental mice of the treated cohort on the 7th, 8th, 10th and 12th experimental days. The control mice were i.p. injected with 150 μL saline solution applying the same time regime.
On the 7th, 8th, 10th and 12th days of the investigation at an average tumour volume of 26.56 ± 2.39 mm^3 CB17 SCID mice bearing HT1080 fibrosarcoma in their left shoulder area were i.p. injected with approximately 5 MBq [^213Bi]Bi-DOTAGA- cKNGRE. The treatment-naïve study mice i.p. received 150 μL saline solution on the same experimental days. In a bid to assess the therapeutic efficacy of the investigated probe, body weights (BW, expressed in grams/g ± SD) and tumour volume (mm^3 ± SD) of the small animals were registered. Calliper measurements were applied to evaluate tumour development.

On to “^68Ga-NOTA-Gly3-CNGRC [[^68Ga]Ga-NOTA-G3-NGR, ^68Ga-tagged CD13-affine peptide derivate, literature PET tracer]”, for which, in data set [1], the tumour accumulation is given as 4.96 ± 3.18 ID%/g.

On to `N=C(N)NCCC[C@@H]1NC(=O)CNC(=O)[C@H](CC(N)=O)NC(=O)[C@H](CCCCNC(=S)Nc2ccc(CNC(=O)CCC(C(=O)O)N3CCN(CC(=O)O)CCN(CC(=O)O)CCN(CC(=O)O)CC3)cc2)NC(=O)CC[C@@H](C(N)=O)NC1=O` (some centres unmarked) [[^205/206Bi]Bi-DOTAGA-cKNGRE], for which, in data set [2], the remaining at 1.5 h is above 95%. Moreover, the LogP value in data set [3] was −2.59.

On to `N=C(N)NCCC[C@@H]1NC(=O)CNC(=O)[C@H](CC(N)=O)NC(=O)[C@H](CCCCNC(=S)Nc2ccc(CNC(=O)CCC(C(=O)O)N3CCN(CC(=O)O)CCN(CC(=O)O)CCN(CC(=O)O)CC3)cc2)NC(=O)CC[C@@H](C(N)=O)NC1=O` (some centres unmarked) [[^213Bi]Bi-DOTAGA-cKNGRE, metal not drawn], for which the tissue uptake at 0.5 h in “in vivo” (HT1080 tumor) stood at 1.48 ± 0.18 %ID/g; in the data set “in vivo” (blood) it was 2.72 ± 0.22 %ID/g; in the data set “in vivo” (bone (femur)) it was 0.69 ± 0.38 %ID/g; in “in vivo” (fat), 0.72 ± 0.05 %ID/g; in “in vivo” (kidney), 11.4 ± 1.41 %ID/g; in the data set “in vivo” (lung), 2.09 ± 0.74 %ID/g. In addition, the tissue uptake at 0.5 h in “in vivo” (pancreas) is 0.57 ± 0.18 %ID/g; in the data set “in vivo” (stomach) it was 0.73 ± 0.04 %ID/g. Further, the tissue uptake at 1.5 h in “in vivo” (HT1080 tumor) amounted to 0.8 ± 0.16 %ID/g; in “in vivo” (kidney) it was 4.51 ± 1.21 %ID/g; in the data set “in vivo” (muscle), 0.06 ± 0.02 %ID/g; in “in vivo” (pancreas), 0.08 ± 0.03 %ID/g. The tumour volume is on record as 28.25 ± 2.67 mm^3 in the data set with HT1080 fibrosarcoma (day 7); 23.33 ± 6.87 mm^3 with HT1080 fibrosarcoma (day 8); 35.36 ± 7.57 mm^3 in the data set on HT1080 fibrosarcoma (day 9, p ≤ 0.01 vs untreated); 58.33 ± 14.36 mm^3 with HT1080 fibrosarcoma (day 10, p ≤ 0.01 vs untreated); 112.50 ± 18.42 mm^3 with HT1080 fibrosarcoma (day 12, p ≤ 0.01 vs untreated).

Values taken from PMC9968005, “Therapeutic Performance Evaluation of ^213Bi-Labelled Aminopeptidase N (APN/CD13)-Affine NGR-Motif ([^213Bi]Bi-DOTAGA-cKNGRE) in Experimental Tumour Model: A Treasured Tailor for Oncology” (Pharmaceutics, 2023).
